Literature values, collected in paper PMC3432176.

Target: preMADH (Paracoccus denitrificans) (UniProt P22619)
Experiment: kinetics

UniProt P22619, sequence (P22619 58-188, chain 1 of 2): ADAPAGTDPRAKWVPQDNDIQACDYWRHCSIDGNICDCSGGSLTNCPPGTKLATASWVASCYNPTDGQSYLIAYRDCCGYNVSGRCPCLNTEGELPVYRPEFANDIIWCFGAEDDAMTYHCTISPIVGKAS
UniProt P22619, sequence (P29894 29-417, chain 2 of 2, further chain): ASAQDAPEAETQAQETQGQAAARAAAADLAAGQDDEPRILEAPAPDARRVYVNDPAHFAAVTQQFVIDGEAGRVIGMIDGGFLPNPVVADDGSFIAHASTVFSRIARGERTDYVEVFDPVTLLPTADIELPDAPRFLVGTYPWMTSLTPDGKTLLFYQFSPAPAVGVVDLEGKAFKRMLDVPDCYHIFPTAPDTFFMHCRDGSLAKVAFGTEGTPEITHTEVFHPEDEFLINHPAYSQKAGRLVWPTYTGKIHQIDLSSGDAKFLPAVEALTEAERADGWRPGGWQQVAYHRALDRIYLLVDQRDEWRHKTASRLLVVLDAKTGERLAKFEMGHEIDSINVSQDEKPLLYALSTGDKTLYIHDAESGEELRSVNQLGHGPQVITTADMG

In the case of MauG (from UniProt Q51658), the Kd is given as less than 1500 nM.
